Here are results for ten molecules from article doi:10.1101/493668 (bioRxiv, 2019).

No end group written: not given here.

In data set [1] the target is CsgA, major curlin subunit, recombinant with C-terminal His6-tag (Escherichia coli) (UniProt P28307). The data set is described as follows: SEC-MALS.
The data set “crystal structure” concerns the molecule itself. The data set is described as follows: crystal structure.
Data set [2] concerns the molecule itself. The data set is described as follows: ThT fibrillation kinetics.
Data set [3] concerns the molecule itself. The data set is described as follows: ThT fibrillation kinetics. This is another data set of the same source.

A word on the stoichiometry N: it is the number of molecules, sites or subunits per partner or assembly.

In the case of “CsgA, major curlin subunit, recombinant with C-terminal His6-tag (from UniProt P28307 21-151) (natural protein)”, the stoichiometry N in data set [1] is 6.

B1: CsgA segment 129TASNSS134 (R4-R5 loop), unmodified termini (peptide)
peptide: H-TASNSS-OH
On to B1, for which the binding result in the data set “crystal structure” is reported as “binds”.

B2: CsgA segment 47IYQYGG52 (R1 repeat), unmodified termini (peptide)
peptide: H-IYQYGG-OH
Consider B2, for which the binding result in the data set “crystal structure” is “binds”.

B3: CsgA segment 137VTQVGF142 (R5 repeat), unmodified termini (peptide)
peptide: H-VTQVGF-OH
In the case of B3, the binding result in the data set “crystal structure” is recorded as “binds”.

B4: CsgA segment 137VTQVGF142 (R5 repeat), capped termini (peptide)
peptide: Ac-VTQVGF-NH2
As to B4, the binding result in data set [2] is “binds”.

B5: CsgA segment 45LNIYQY50 (R1 repeat), unmodified termini (peptide)
peptide: H-LNIYQY-OH
Consider B5, for which the binding result in the data set “crystal structure” is reported as “binds”.

B6: CsgA segment 137VTQVGF142 (R5 repeat), capped at the C-terminus (peptide)
peptide: VTQVGF-NH2
For B6, the binding result in data set [3] is “binds”.

B7: CsgA segment 45LNIYQY50 (R1 repeat), capped at the C-terminus (peptide)
peptide: LNIYQY-NH2
As to B7, the binding result in data set [3] was “binds”.

B8: CsgA segment 47IYQYGG52 (R1 repeat), capped termini (peptide)
peptide: Ac-IYQYGG-NH2
Consider B8, for which the binding result in data set [2] is listed as “binds”.

B9: CsgA segment 45LNIYQY50 (R1 repeat), capped termini (peptide)
peptide: Ac-LNIYQY-NH2
As to B9, in data set [2], the binding result is “binds”.
